Data from patent US20260242478A1 (published 2026).
Where no end group is shown, it is not given here.

B1: Phage-94 (peptide)
peptide: MDWCPRDLWSLCFY
modifications: cysteine pairing not given here; also: displayed on phage as fusion to pIII, linker not given here
B2: Phage-95 (peptide)
peptide: MDWCPRFLWSECFN
modifications: cysteine pairing not given here; also: displayed on phage as fusion to pIII, linker not given here
notes: also called position columns give F at position 7)
B3: Phage-96 (peptide)
peptide: MDWCPRTLWAYCFN
modifications: cysteine pairing not given here; also: displayed on phage as fusion to pIII, linker not given here
B4: Phage-97 (peptide)
peptide: MDWCPKDLWDYCFA
modifications: cysteine pairing not given here; also: displayed on phage as fusion to pIII, linker not given here
B5: Phage-98 (peptide)
peptide: MDWCPKYLWDVCFN
modifications: cysteine pairing not given here; also: displayed on phage as fusion to pIII, linker not given here
B6: Phage-99 (peptide)
peptide: MDWCPRYLWNMCFH
modifications: cysteine pairing not given here; also: displayed on phage as fusion to pIII, linker not given here
B7: Phage-115 (peptide)
peptide: MDWCPRYLWHECFN
modifications: cysteine pairing not given here; also: phage-displayed pIII fusion, pIII and linker not given here
B8: Phage-100 (peptide)
peptide: MDWCPRYLWTECFN
modifications: cysteine pairing not given here; also: phage-displayed pIII fusion, pIII and linker not given here
B9: Phage-110 (peptide)
peptide: MDWCPRYLWDECFN
modifications: cysteine pairing not given here; also: phage-displayed pIII fusion, pIII and linker not given here
B10: Phage-109 (peptide)
peptide: MDWCPKNLWHVCFN
modifications: cysteine pairing not given here; also: phage-displayed pIII fusion, pIII and linker not given here
B11: Phage-111 (peptide)
peptide: MDWCPFYLWNECFY
modifications: cysteine pairing not given here; also: phage-displayed pIII fusion, pIII and linker not given here
B12: Phage-112 (peptide)
peptide: MHWCPRALWDVCYN
modifications: cysteine pairing not given here; also: phage-displayed pIII fusion, pIII and linker not given here
B13: Phage-113 (peptide)
peptide: MDWCPRDLWNVCFF
modifications: cysteine pairing not given here; also: phage-displayed pIII fusion, pIII and linker not given here
B14: Phage-114 (peptide)
peptide: MDWCPRYLWFECFA
modifications: cysteine pairing not given here; also: phage-displayed pIII fusion, pIII and linker not given here
B15: Phage-116 (peptide)
peptide: MDWCPRDLWYACFA
modifications: cysteine pairing not given here; also: phage-displayed pIII fusion, pIII and linker not given here

Biological target: T1, anti-CD28 scFv (VH - linker 1 - VL) (biotinylated (site not given))
T1 construct: Biotinylated scFv captured on neutravidin coated plates in the panning ELISA
T1 sequence (scFv, as listed by the source): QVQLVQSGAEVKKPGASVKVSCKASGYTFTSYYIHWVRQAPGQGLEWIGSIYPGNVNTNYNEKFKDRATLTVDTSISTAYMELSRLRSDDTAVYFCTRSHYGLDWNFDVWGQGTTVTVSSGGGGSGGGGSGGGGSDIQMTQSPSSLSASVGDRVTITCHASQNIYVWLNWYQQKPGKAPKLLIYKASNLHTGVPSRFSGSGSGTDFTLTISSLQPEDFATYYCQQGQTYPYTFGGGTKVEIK
Assay: phage ELISA as above; wells pre-incubated with soluble CD28 as competitor;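 also: crude clonal phage supernatants tested, with bound phage detected by HRP-conjugated anti-M13 antibody, and reference wells given blocking buffer without CD28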

In order of rising “CD28 scFv signal in presence of CD28” value:
1. B13  0.137
2. B4  0.165
3. B14  0.21
4. B2  0.227
5. B12  0.24
6. B15  0.242
7. B1  0.246
8. B10  0.248
9. B9  0.283
10. B6  0.404
11. B7  0.421
12. B5  0.422
13. B8  0.549
14. B3  0.584
15. B11  0.594

Biological target: T1, anti-CD28 scFv (VH - linker 1 - VL)
Assay: phage ELISA; biotinylated anti-CD28 scFv on neutravidin plate, clonal phage supernatant, anti-M13 HRP
Protocol: Clonal phage were harvested as crude supernatants and screened via standard enzyme linked immunosorbent assays (ELISAs). […] Prior to the addition of clonal phage, wells were incubated with blocking buffer and CD28 soluble protein or blocking buffer alone. Without washing or aspirating, clonal phage supernatants were then added to the wells and incubated for a short time. Wells were then washed followed by detection of bound phage using a horse radish peroxidase conjugated anti-M13 antibody.

In order of rising “CD28 scFv signal” value:
1. B15  2.47
2. B7  2.49
3. B14  2.5
4. B13  2.52
5. B9  2.53
6. B10  2.53
7. B11  2.53
8. B12  2.53
9. B6  2.56
10. B8  2.56
11. B1  2.57
12. B2  2.57
13. B3  2.57
14. B4  2.57
15. B5  2.57

Biological target: T2, Anti-CD28 Fab (SEQ ID NOs: 696, 697)
T2 construct: Biotinylated and captured on neutravidin coated plates in the phage ELISA
T2 sequence (VH, as listed by the source, chain 1 of 2): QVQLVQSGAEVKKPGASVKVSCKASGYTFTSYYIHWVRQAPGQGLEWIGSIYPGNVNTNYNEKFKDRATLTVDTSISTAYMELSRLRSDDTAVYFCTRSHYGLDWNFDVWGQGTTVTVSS
T2 sequence (VL, as listed by the source, chain 2 of 2): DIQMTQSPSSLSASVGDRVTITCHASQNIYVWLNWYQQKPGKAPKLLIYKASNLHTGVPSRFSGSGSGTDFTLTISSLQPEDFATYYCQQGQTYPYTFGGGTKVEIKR
Assay: phage binding ELISA; Fab coated wells pre-incubated with CD28 antigen as competitor, anti-M13 HRP detection
Protocol: (§1) Clonal phage were harvested as crude supematants and screened via standard ELISAs. […] Prior to the addition of clonal phage, wells were incubated with blocking buffer and CD28 antigen or blocking buffer alone. Without washing or aspirating, clonal phage supematants were then added to the wells and incubated for a short time. Wells were then washed followed by detection of bound phage using a horse radish conjugated anti-M13 antibody.

In order of falling “Anti-CD28 Fab signal in the presence of CD28” value:
1. YCAGMSTIQLWLKC [Phage-473]  0.09
2. LCAAGASWPWPVCL [Phage-1335]  0.08
3. TCSAGAAYPWPLCL [Phage-1342]  0.08
4. TCAAGAAWPWPQCL [Phage-1337]  0.08
5. YCAGHTEEHYVKCM [Phage-475]  0.07
6. YCMGHSHEHIWKCL [Phage-476]  0.07
7. TCSAGATWPWPICL [Phage-1334]  0.07
8. TCAAGATWSWPACF [Phage-1339]  0.07
9. TCAAGAAWGWPLCF [Phage-1340]  0.07
10. YCAGHMPQYEVKCL [Phage-474]  0.06
11. YCAGHSHEYLAKCE (also called YCAGHSHEYLAKCE) [Phage-477]  0.06
12. TCSAGASYPWPLCL [Phage-1336]  0.06
13. TCSAGATYTWPKCF [Phage-1338]  0.06

Biological target: T2, Anti-CD28 Fab (SEQ ID NOs: 696, 697)
Assay: phage binding ELISA; biotinylated anti-CD28 Fab on neutravidin plate, clonal phage supernatant, anti-M13 HRP detection;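 also: wells pretreated with blocking buffer, either plus or minus CD28 antigen, then given crude phage supernatant briefly without washing in between, then washed before anti-M13 HRP readout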
Protocol: as §1

In order of rising “Anti-CD28 Fab (SEQ ID NOs: 696, 697) signal” value:
1. YCAGHMPQYEVKCL [Phage-474]  0.22
2. YCAGHTEEHYVKCM [Phage-475]  0.62
3. YCAGHSHEYLAKCE (also called YCAGHSHEYLAKCE) [Phage-477]  0.86
4. YCMGHSHEHIWKCL [Phage-476]  0.87
5. TCSAGATYTWPKCF [Phage-1338]  1.87
6. TCSAGATWPWPICL [Phage-1334]  2
7. YCAGMSTIQLWLKC [Phage-473]  2.16
8. LCAAGASWPWPVCL [Phage-1335]  2.16
9. TCAAGAAWPWPQCL [Phage-1337]  2.23
10. TCAAGATWSWPACF [Phage-1339]  2.23
11. TCAAGAAWGWPLCF [Phage-1340]  2.3
12. TCSAGAAYPWPLCL [Phage-1342]  2.36
13. TCSAGASYPWPLCL [Phage-1336]  2.38
